We go through four molecules from PMC4081078.

The target in series [1] is T1, TRF2 (UniProt Q15554 1-542). Briefly: EMSA.
The target in another series is TRF2ΔB (UniProt Q15554 87-542). The series can be described thus: EMSA. On the technique in general: Mobility shift assays separate free from complexed probe on a gel.
Series [2] addresses T1, TRF2. The series can be described thus: EMSA. This is another data set of the same source.
Series [3] deals with T1, TRF2. The series can be described thus: EMSA. The source holds these as a separate data set.
The target of another series is TRF1 (UniProt P54274 1-439). The series can be described thus: EMSA.
Sequence of TRF1 (P54274 whole entry): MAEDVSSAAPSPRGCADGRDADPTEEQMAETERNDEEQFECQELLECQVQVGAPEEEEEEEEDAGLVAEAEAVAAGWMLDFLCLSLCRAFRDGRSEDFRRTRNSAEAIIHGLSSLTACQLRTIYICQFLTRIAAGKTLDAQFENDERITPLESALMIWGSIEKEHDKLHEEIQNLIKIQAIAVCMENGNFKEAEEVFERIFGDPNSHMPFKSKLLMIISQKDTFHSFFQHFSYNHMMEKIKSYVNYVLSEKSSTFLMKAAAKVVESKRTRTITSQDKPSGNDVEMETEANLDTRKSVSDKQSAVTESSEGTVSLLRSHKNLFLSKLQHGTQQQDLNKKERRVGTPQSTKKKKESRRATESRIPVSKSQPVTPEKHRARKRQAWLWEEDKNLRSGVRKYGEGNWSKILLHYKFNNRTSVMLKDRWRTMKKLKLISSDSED
For series [4], the target named is T1, TRF2. The series can be described thus: pull-down, immunoblot.

T1 sequence (Q15554 whole entry): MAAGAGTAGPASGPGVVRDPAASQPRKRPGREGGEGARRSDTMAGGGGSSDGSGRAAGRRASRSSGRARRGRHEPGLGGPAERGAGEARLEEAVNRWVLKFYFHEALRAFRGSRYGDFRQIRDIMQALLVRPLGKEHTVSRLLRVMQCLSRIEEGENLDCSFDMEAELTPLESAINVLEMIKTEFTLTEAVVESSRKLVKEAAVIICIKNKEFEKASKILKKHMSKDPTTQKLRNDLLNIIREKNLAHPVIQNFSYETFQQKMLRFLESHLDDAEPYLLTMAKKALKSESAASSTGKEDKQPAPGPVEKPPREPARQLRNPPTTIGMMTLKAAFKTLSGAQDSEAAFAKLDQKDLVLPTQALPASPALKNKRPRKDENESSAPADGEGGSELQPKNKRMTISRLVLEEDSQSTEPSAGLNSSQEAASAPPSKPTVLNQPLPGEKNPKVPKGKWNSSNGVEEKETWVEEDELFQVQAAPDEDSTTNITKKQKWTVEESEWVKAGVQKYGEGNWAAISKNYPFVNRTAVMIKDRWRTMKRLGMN
Sequence of TRF2ΔB (Q15554 87-542, stated change not applied): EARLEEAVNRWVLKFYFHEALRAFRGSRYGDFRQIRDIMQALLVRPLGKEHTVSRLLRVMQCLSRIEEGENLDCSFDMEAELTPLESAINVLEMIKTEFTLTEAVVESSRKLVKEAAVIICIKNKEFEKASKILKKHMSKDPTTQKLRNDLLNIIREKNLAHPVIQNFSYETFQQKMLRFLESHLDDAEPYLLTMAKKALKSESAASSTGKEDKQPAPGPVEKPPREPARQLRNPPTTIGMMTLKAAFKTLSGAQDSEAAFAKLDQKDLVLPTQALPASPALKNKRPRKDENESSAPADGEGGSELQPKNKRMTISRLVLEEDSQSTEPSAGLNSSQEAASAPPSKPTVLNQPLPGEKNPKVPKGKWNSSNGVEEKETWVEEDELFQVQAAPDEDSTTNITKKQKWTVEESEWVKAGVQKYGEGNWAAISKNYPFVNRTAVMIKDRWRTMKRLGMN

B1: *G77telo/C38telo (dsDNA)
DNA 1: AGCTGAGCATGTCCAGACATGTCCTAGGGTTAGGGTTAGGGTTAGGGTTAGGGTTAGGGTTAGGGTTAGGGTTAGGG
DNA 2: TAACCCTAACCCTAGGACATGTCTGGACATGCTCAGCT
modifications: phosphorothioate after nt 1 of each strand
As for B1, the binding result in the series with TRF2 [1] is on record as “binds”.

B2: *G77telo/C50telo (dsDNA)
DNA 1: B1 DNA 1
DNA 2: TAACCCTAACCCTAACCCTAACCCTAGGACATGTCTGGACATGCTCAGCT
modifications: phosphorothioate after nt 1 of each strand
In the case of B2, the binding result with TRF2ΔB and with TRF2 [2] was “binds” throughout.

B3: *G77telo/C77telo (dsDNA)
DNA 1: B1 DNA 1
DNA 2: CCCTAACCCTAACCCTAACCCTAACCCTAACCCTAACCCTAACCCTAACCCTAGGACATGTCTGGACATGCTCAGCT
modifications: phosphorothioate after nt 1 of each strand
In the case of B3, the binding result in the series with TRF2ΔB, in the series with TRF2 [3] and with TRF1 was “binds” each time.

B4: b-G68telo/C50telo (dsDNA)
DNA 1: AGCTGAGCATGTCCAGACATGTCCTAGGGTTAGGGTTAGGGTTAGGGTTAGGGTTAGGGTTAGGGTTA
DNA 2: B2 DNA 2
modifications: phosphorothioate after nt 1 of each strand
As to B4, the binding result in the series with TRF2 [4] is given as “binds”.
